T1: EsCas13d, nuclease-dead (Eubacterium siraeum, UniProt B0MS50, R295A;H300A;R849A;H854A)
T1 sequence: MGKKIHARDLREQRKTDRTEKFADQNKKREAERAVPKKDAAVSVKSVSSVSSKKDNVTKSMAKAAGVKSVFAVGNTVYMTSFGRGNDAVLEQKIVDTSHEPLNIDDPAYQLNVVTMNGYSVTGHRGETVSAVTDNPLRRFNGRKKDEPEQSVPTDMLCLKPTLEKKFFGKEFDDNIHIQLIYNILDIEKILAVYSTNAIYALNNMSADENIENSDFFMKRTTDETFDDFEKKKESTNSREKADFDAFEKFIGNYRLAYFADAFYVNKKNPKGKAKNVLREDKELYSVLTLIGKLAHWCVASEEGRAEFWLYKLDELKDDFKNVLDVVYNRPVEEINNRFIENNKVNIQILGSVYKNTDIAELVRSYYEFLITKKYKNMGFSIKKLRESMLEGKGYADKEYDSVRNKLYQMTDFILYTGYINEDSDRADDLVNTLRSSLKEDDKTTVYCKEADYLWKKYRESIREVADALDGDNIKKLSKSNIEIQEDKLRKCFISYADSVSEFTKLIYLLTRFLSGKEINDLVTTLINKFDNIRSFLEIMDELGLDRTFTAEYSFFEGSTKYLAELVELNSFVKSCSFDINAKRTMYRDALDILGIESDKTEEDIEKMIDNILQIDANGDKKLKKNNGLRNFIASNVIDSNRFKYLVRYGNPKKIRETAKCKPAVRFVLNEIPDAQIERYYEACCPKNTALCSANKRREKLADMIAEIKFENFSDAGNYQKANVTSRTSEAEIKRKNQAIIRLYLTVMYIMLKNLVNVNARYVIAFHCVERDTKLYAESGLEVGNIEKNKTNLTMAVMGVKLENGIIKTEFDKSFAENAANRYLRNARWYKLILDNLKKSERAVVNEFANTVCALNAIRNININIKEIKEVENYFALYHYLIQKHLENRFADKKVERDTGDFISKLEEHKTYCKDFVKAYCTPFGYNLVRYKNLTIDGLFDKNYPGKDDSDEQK

B1: target 1 insC 3' of 20,insG 3' of 4 (mixed)
RNA 1: CACCCGUGCAAAAAUGCAGGGGUCUAAAACUGAGCGGAUAACCUCUCUAUGG
RNA 2: GGGAAUGGAUCCACAUCUACGAAUUCGUACCACUAGAGAGGUUAUCCGCGUCACCGAGAUCGGAAGAGCACACGU
B2: target 1 C2G,U19C (mixed)
RNA 1: CACCCGUGCAAAAAUGCAGGGGUCUAAAACUGAGCGGAUAACCUCUCUAUGG
RNA 2: GGGAAUGGAUCCACAUCUACGAAUUCGUACCACAGAGAGGUUAUCCGCUGACCGAGAUCGGAAGAGCACACGU
B3: target 1 insG 3' of 18,insG 3' of 14 (mixed)
RNA 1: CACCCGUGCAAAAAUGCAGGGGUCUAAAACUGAGCGGAUAACCUCUCUAUGG
RNA 2: GGGAAUGGAUCCACAUCUACGAAUUCGUACCAUAGGAGAGGGUUAUCCGCUCACCGAGAUCGGAAGAGCACACGU
B4: target 1 del3,del16 (mixed)
RNA 1: CACCCGUGCAAAAAUGCAGGGGUCUAAAACUGAGCGGAUAACCUCUCUAUGG
RNA 2: GGGAAUGGAUCCACAUCUACGAAUUCGUACCAUAGGAGGUUAUCCGCCACCGAGAUCGGAAGAGCACACGU
B5: target 1 U11A,G13A (mixed)
RNA 1: CACCCGUGCAAAAAUGCAGGGGUCUAAAACUGAGCGGAUAACCUCUCUAUGG
RNA 2: GGGAAUGGAUCCACAUCUACGAAUUCGUACCAUAGAGAAGAUAUCCGCUCACCGAGAUCGGAAGAGCACACGU
B6: target 1 insU 3' of 17 (mixed)
RNA 1: CACCCGUGCAAAAAUGCAGGGGUCUAAAACUGAGCGGAUAACCUCUCUAUGG
RNA 2: GGGAAUGGAUCCACAUCUACGAAUUCGUACCAUAGUAGAGGUUAUCCGCUCACCGAGAUCGGAAGAGCACACGU
B7: target 1 insU 3' of 18,insA 3' of 17 (mixed)
RNA 1: CACCCGUGCAAAAAUGCAGGGGUCUAAAACUGAGCGGAUAACCUCUCUAUGG
RNA 2: GGGAAUGGAUCCACAUCUACGAAUUCGUACCAUAUGAAGAGGUUAUCCGCUCACCGAGAUCGGAAGAGCACACGU
B8: target 1 insG 3' of 16,insC 3' of 14 (mixed)
RNA 1: CACCCGUGCAAAAAUGCAGGGGUCUAAAACUGAGCGGAUAACCUCUCUAUGG
RNA 2: GGGAAUGGAUCCACAUCUACGAAUUCGUACCAUAGAGGACGGUUAUCCGCUCACCGAGAUCGGAAGAGCACACGU
B9: target 1 U3G,G15C (mixed)
RNA 1: CACCCGUGCAAAAAUGCAGGGGUCUAAAACUGAGCGGAUAACCUCUCUAUGG
RNA 2: GGGAAUGGAUCCACAUCUACGAAUUCGUACCAUAGACAGGUUAUCCGCGCACCGAGAUCGGAAGAGCACACGU
B10: target 1 insC 3' of 13,insA 3' of 3 (mixed)
RNA 1: CACCCGUGCAAAAAUGCAGGGGUCUAAAACUGAGCGGAUAACCUCUCUAUGG
RNA 2: GGGAAUGGAUCCACAUCUACGAAUUCGUACCAUAGAGAGCGUUAUCCGCUACACCGAGAUCGGAAGAGCACACGU
B11: target 1 insG 3' of 16,insG 3' of 11 (mixed)
RNA 1: CACCCGUGCAAAAAUGCAGGGGUCUAAAACUGAGCGGAUAACCUCUCUAUGG
RNA 2: GGGAAUGGAUCCACAUCUACGAAUUCGUACCAUAGAGGAGGUGUAUCCGCUCACCGAGAUCGGAAGAGCACACGU
B12: target 1 insC 3' of 17,insG 3' of 4 (mixed)
RNA 1: CACCCGUGCAAAAAUGCAGGGGUCUAAAACUGAGCGGAUAACCUCUCUAUGG
RNA 2: GGGAAUGGAUCCACAUCUACGAAUUCGUACCAUAGCAGAGGUUAUCCGCGUCACCGAGAUCGGAAGAGCACACGU
B13: target 1 C7G,G17A (mixed)
RNA 1: CACCCGUGCAAAAAUGCAGGGGUCUAAAACUGAGCGGAUAACCUCUCUAUGG
RNA 2: GGGAAUGGAUCCACAUCUACGAAUUCGUACCAUAAAGAGGUUAUGCGCUCACCGAGAUCGGAAGAGCACACGU
B14: target 1 insC 3' of 17,insU 3' of 9 (mixed)
RNA 1: CACCCGUGCAAAAAUGCAGGGGUCUAAAACUGAGCGGAUAACCUCUCUAUGG
RNA 2: GGGAAUGGAUCCACAUCUACGAAUUCGUACCAUAGCAGAGGUUAUUCCGCUCACCGAGAUCGGAAGAGCACACGU
B15: target 1 insG 3' of 21,insC 3' of 20 (mixed)
RNA 1: CACCCGUGCAAAAAUGCAGGGGUCUAAAACUGAGCGGAUAACCUCUCUAUGG
RNA 2: GGGAAUGGAUCCACAUCUACGAAUUCGUACCGACUAGAGAGGUUAUCCGCUCACCGAGAUCGGAAGAGCACACGU
B16: target 1 insC 3' of 13,insC 3' of 8 (mixed)
RNA 1: CACCCGUGCAAAAAUGCAGGGGUCUAAAACUGAGCGGAUAACCUCUCUAUGG
RNA 2: GGGAAUGGAUCCACAUCUACGAAUUCGUACCAUAGAGAGCGUUAUCCCGCUCACCGAGAUCGGAAGAGCACACGU
B17: target 1 insC 3' of 15 (mixed)
RNA 1: CACCCGUGCAAAAAUGCAGGGGUCUAAAACUGAGCGGAUAACCUCUCUAUGG
RNA 2: GGGAAUGGAUCCACAUCUACGAAUUCGUACCAUAGAGCAGGUUAUCCGCUCACCGAGAUCGGAAGAGCACACGU
B18: target 1 insG 3' of 18,insC 3' of 18 (mixed)
RNA 1: CACCCGUGCAAAAAUGCAGGGGUCUAAAACUGAGCGGAUAACCUCUCUAUGG
RNA 2: GGGAAUGGAUCCACAUCUACGAAUUCGUACCAUAGCGAGAGGUUAUCCGCUCACCGAGAUCGGAAGAGCACACGU
B19: target 1 insU 3' of 9,insU 3' of 5 (mixed)
RNA 1: CACCCGUGCAAAAAUGCAGGGGUCUAAAACUGAGCGGAUAACCUCUCUAUGG
RNA 2: GGGAAUGGAUCCACAUCUACGAAUUCGUACCAUAGAGAGGUUAUUCCGUCUCACCGAGAUCGGAAGAGCACACGU
B20: target 1 insG 3' of 21,insU 3' of 20 (mixed)
RNA 1: CACCCGUGCAAAAAUGCAGGGGUCUAAAACUGAGCGGAUAACCUCUCUAUGG
RNA 2: GGGAAUGGAUCCACAUCUACGAAUUCGUACCGAUUAGAGAGGUUAUCCGCUCACCGAGAUCGGAAGAGCACACGU
B21: target 1 insC 3' of 13 (mixed)
RNA 1: CACCCGUGCAAAAAUGCAGGGGUCUAAAACUGAGCGGAUAACCUCUCUAUGG
RNA 2: GGGAAUGGAUCCACAUCUACGAAUUCGUACCAUAGAGAGCGUUAUCCGCUCACCGAGAUCGGAAGAGCACACGU
B22: target 1 C4G,U19C (mixed)
RNA 1: CACCCGUGCAAAAAUGCAGGGGUCUAAAACUGAGCGGAUAACCUCUCUAUGG
RNA 2: GGGAAUGGAUCCACAUCUACGAAUUCGUACCACAGAGAGGUUAUCCGGUCACCGAGAUCGGAAGAGCACACGU
B23: target 1 U11A,G12U (mixed)
RNA 1: CACCCGUGCAAAAAUGCAGGGGUCUAAAACUGAGCGGAUAACCUCUCUAUGG
RNA 2: GGGAAUGGAUCCACAUCUACGAAUUCGUACCAUAGAGAGUAUAUCCGCUCACCGAGAUCGGAAGAGCACACGU
B24: target 1 C2G,C7A (mixed)
RNA 1: CACCCGUGCAAAAAUGCAGGGGUCUAAAACUGAGCGGAUAACCUCUCUAUGG
RNA 2: GGGAAUGGAUCCACAUCUACGAAUUCGUACCAUAGAGAGGUUAUACGCUGACCGAGAUCGGAAGAGCACACGU
B25: target 1 insC 3' of 18,insU 3' of 2 (mixed)
RNA 1: CACCCGUGCAAAAAUGCAGGGGUCUAAAACUGAGCGGAUAACCUCUCUAUGG
RNA 2: GGGAAUGGAUCCACAUCUACGAAUUCGUACCAUACGAGAGGUUAUCCGCUCUACCGAGAUCGGAAGAGCACACGU
B26: target 1 insA 3' of 19,insC 3' of 19 (mixed)
RNA 1: CACCCGUGCAAAAAUGCAGGGGUCUAAAACUGAGCGGAUAACCUCUCUAUGG
RNA 2: GGGAAUGGAUCCACAUCUACGAAUUCGUACCAUACAGAGAGGUUAUCCGCUCACCGAGAUCGGAAGAGCACACGU
B27: target 1 insA 3' of 22,insA 3' of 22 (mixed)
RNA 1: CACCCGUGCAAAAAUGCAGGGGUCUAAAACUGAGCGGAUAACCUCUCUAUGG
RNA 2: GGGAAUGGAUCCACAUCUACGAAUUCGUACAACAUAGAGAGGUUAUCCGCUCACCGAGAUCGGAAGAGCACACGU
B28: target 1 insG 3' of 16,insA 3' of 4 (mixed)
RNA 1: CACCCGUGCAAAAAUGCAGGGGUCUAAAACUGAGCGGAUAACCUCUCUAUGG
RNA 2: GGGAAUGGAUCCACAUCUACGAAUUCGUACCAUAGAGGAGGUUAUCCGCAUCACCGAGAUCGGAAGAGCACACGU

Target: T1, EsCas13d, nuclease-dead
Assay: crRNA (strand 1, pre-loaded); Mg2+; 40 mM Tris-HCl pH 7.5, 150 mM NaCl, 6 mM MgCl2, 1 mM DTT, 0.1% Tween-20, 0.2 mg/ml BSA; 25 C; 10 min per concentration, then washed
Settings: tags: His6-TwinStrep-SUMO cleaved; N-terminal SNAP kept (SNAP-Surface 488); label: 3' end held by stalled T7 RNA polymerase

Binder | Kd [nM]
B1 | 11.4 ± 0.9
B2 | 18.5 ± 1
B3 | 63 ± 5
B4 | 85 ± 31
B5 | 38.5 ± 2.8
B6 | 14.1 ± 1.2
B7 | 54 ± 7
B8 | 38 ± 5
B9 | 34 ± 4
B10 | 6.88 ± 0.2
B11 | 50 ± 5
B12 | 30.9 ± 2.4
B13 | 49 ± 5
B14 | 39 ± 7
B15 | 15.3 ± 1.1
B16 | 13.1 ± 0.4
B17 | 16.3 ± 0.8
B18 | 30.8 ± 1.3
B19 | 8 ± 1.5
B20 | 58 ± 9
B21 | 9.1 ± 0.4
B22 | 28 ± 6
B23 | 5.1 ± 0.35
B24 | 6.22 ± 0.24
B25 | 38 ± 7
B26 | 21.5 ± 1.8
B27 | 9.9 ± 0.6
B28 | 10.5 ± 0.5
